Results as given in paper doi:10.1101/2022.08.30.505823 (bioRxiv, 2022).

B1: SMAC (natural protein)
chain: AVPIAQKSEPHSLSSEALMRRAVSLVTDSTSTFLSQTTYALIEAITEYTKAVYTLTSLYRQYTSLLGKMNSEEEDEVWQVIIGARAEMTSKHQEYLKLETTWMTAVGLSEMAAEAAYQTGADQASITARNHIQLVKLQVEEVHQLSRKAETKLAEAQIEELRQKTQEEGEERAESEQEAYLRED

Legend:
[1] = target: BIRC6 (human, wild type, recombinant) (human) (UniProt Q9NR09); assay: cryo-EM structure; conditions: remark: other sources report otherwise
[2] = target: BIRC6 (human, wild type, recombinant) (human) (UniProt Q9NR09); assay: mass photometry; conditions: remark: other sources report otherwise
cryo-EM structure = target: the molecule itself; assay: cryo-EM structure

Molecule	stoichiometry N [1]	stoichiometry N [2]	stoichiometry N (cryo-EM structure)
BIRC6 (human, wild type, recombinant), Q9NR09 1-4857	2	2	–
B1	–	–	2
